Measurements published in the supplement of paper PMC10724198.
± gives the standard deviation of the averaged measurements.

tested on: Saccharomyces cerevisiae; assay: protein stability index of tFT-peptide fusion (C-terminal peptide) (PSI (0-1 scale)); higher = more stable (slower turnover); conditions: genetic background: wild type; temperature: 30 C
Experimental: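 Multiplexed protein stability (MPS) profiling in S. cerevisiae. Random 12-aa peptides (tFT-X12 library) are fused to the C-terminus of a sfGFP-mCherry tandem fluorescent timer, after mCherry and a GGGS linker. Cells are FACS-sorted into 8 mCherry/sfGFP bins and deep-sequenced. The protein stability index (PSI) is the read-weighted bin average, scaled from 0 (unstable) to 1 (stable). Only peptides with >10 reads are reported; cells were grown at 30 °C in SC-His with glucose.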
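Note: PSI is a weighted mean of sequencing reads over stability bins, variants kept only with over 10 reads, mCherry proximal and sfGFP distal, peptide attached via GGGS linker.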

| Sequence | protein stability index |
| --- | --- |
| HDQKVPRERRTR | 0.699 ± 0.025 |
| HDRRKAFHVVWL | 0.663 ± 0.039 |
| HDSMTQEPQNSA | 0.65 ± 0.065 |
| HDSRIDIASFHV | 0.716 ± 0.024 |
| HEDIPGSTYTIN | 0.734 ± 0.033 |
| HFLSCVGSLWFH | 0.741 ± 0.0087 |
| HGGCLGGYGGGG | 0.661 ± 0.036 |
| HGLLLRDRPLPT | 0.665 ± 0.024 |
| HGLVLLCINDIV | 0.6312 ± 0.001 |
| HGSDTSIALRSG | 0.622 ± 0.038 |
| HHHPGQKCKIKG | 0.731 ± 0.016 |
| HHLPPRTPPHNS | 0.657 ± 0.037 |
| HHQVVPDVSLVS | 0.6585 ± 0.0013 |
| HHTQPLKSIKKN | 0.708 ± 0.037 |
| HIFAQSFLNIRI | 0.709 ± 0.04 |
| HIGVVSIERLTS | 0.576 ± 0.021 |
| HIHKKGPSGHQK | 0.696 ± 0.028 |
| HIPPPPRPSAPP | 0.69 ± 0.04 |
| HLGRRSGAQGLF | 0.699 ± 0.06 |
| HLPPFSGIHLTP | 0.719 ± 0.011 |
| HLPPLHRLSPPI | 0.668 ± 0.04 |
| HLPPPPSPPPPP | 0.68 ± 0.051 |
| HLPPSSPPLAVI | 0.68 ± 0.009 |
| HLPRRAAILNEF | 0.709 ± 0.049 |
| HLPSPPPPPSRL | 0.744 ± 0.031 |
| HLSCVSVSVRGS | 0.629 ± 0.015 |

| Sequence | protein stability index |
| --- | --- |
| HLSNSCLHGVSG | 0.6484 ± 0.00096 |
| HLSPPLPPAPTS | 0.7022 ± 0.0063 |
| HLSPPPLPPLTS | 0.696 ± 0.037 |
| HLVLIHPTQTLN | 0.634 ± 0.045 |
| HMQCVFRSTHHR | 0.585 ± 0.054 |
| HNGRAARAYLCW | 0.65 ± 0.046 |
| HNRADKLQTTIE | 0.69 ± 0.033 |
| HPARPRPRLALS | 0.666 ± 0.043 |
| HPGPFSTTWHPT | 0.743 ± 0.068 |
| HPHRSAIIAGNH | 0.72 ± 0.0083 |
| HPLLTPTPHKPD | 0.699 ± 0.11 |
| HPLPPPLLPSPA | 0.659 ± 0.096 |
| HPLVASRLSPFP | 0.761 ± 0.07 |
| HPPHLSTPPYPP | 0.722 ± 0.047 |
| HPPLPRPPPVPH | 0.683 ± 0.019 |
| HPPPDPLPSRPS | 0.765 ± 0.093 |
| HPPPHPPFPPRF | 0.73 ± 0.016 |
| HPPPLVPSPSTQ | 0.749 ± 0.067 |
| HPPSPPPPAPSC | 0.738 ± 0.02 |
| HPRLLLYLPTSS | 0.726 ± 0.1 |
| HPRRRPPPPSFP | 0.611 ± 0.023 |
| HPSEPCKSQILL | 0.712 ± 0.027 |
| HPSLSDLIVLCR | 0.51 ± 0.01 |
| HPTLPLLSHPTS | 0.798 ± 0.14 |
| HPTSPDPLVTPL | 0.737 ± 0.068 |
| HPYTPLLSRLSP | 0.708 ± 0.0077 |

| Sequence | protein stability index |
| --- | --- |
| HQFRPYPLFTAR | 0.733 ± 0.013 |
| HQLHLMRDSIRN | 0.716 ± 0.021 |
| HRCVQFMNWVAF | 0.735 ± 0.045 |
| HRDRPYTPLSRF | 0.722 ± 0.13 |
| HRKKTKNVTHVK | 0.6485 ± 0.0062 |
| HRNPNLPFPPPL | 0.74 ± 0.069 |
| HRTSSCESSPLA | 0.737 ± 0.076 |
| HSAVRMGTRGRG | 0.715 ± 0.049 |
| HSCPVCVGWNYS | 0.654 ± 0.047 |
| HSDRPSPTRPQP | 0.6431 ± 0.0029 |
| HSHAGIGPVVTR | 0.672 ± 0.0077 |
| HSHKHTREDTVL | 0.657 ± 0.036 |
| HSPASLPHLSGK | 0.728 ± 0.063 |
| HSPPPLPLPTHP | 0.719 ± 0.077 |
| HSSALFSSRLRF | 0.7223 ± 0.0036 |
| HVAETRLRDHGW | 0.714 |
| HVGEVERGGMGG | 0.7157 ± 0.0021 |
| HVPGGRADMTRS | 0.706 ± 0.0097 |
| HVRARLVVHQRA | 0.631 ± 0.047 |
| HVRSPLRRVEKF | 0.6988 ± 0.006 |
| HVSSKMEWGNRD | 0.763 ± 0.066 |
| HVTGFVQRYLCH | 0.711 ± 0.092 |
| HWPSGGGGPASH | 0.753 ± 0.037 |
| HWRCASLTLSAG | 0.8 ± 0.02 |
| HYYYPSPPSSRH | 0.621 ± 0.042 |
| IACSLSSFSPVW | 0.687 ± 0.031 |

| Sequence | protein stability index |
| --- | --- |
| IAKAVCESLCLQ | 0.7146 ± 0.0063 |
| IALPPPGILDSA | 0.683 ± 0.16 |
| IALPPPLLPPSL | 0.706 ± 0.051 |
| IALTSCVPDLSF | 0.6911 ± 0.0037 |
| IAQVDLPDRMKT | 0.6937 ± 0.0061 |
| IARYLGRYERNV | 0.687 ± 0.042 |
| IAVHLSVSSRSW | 0.616 ± 0.035 |
| ICRGGLWGVCVG | 0.581 ± 0.0097 |
| ICRGGYELLELG | 0.68 ± 0.026 |
| ICVAVESRVSRG | 0.628 ± 0.046 |
| ICYGIHYAQRGS | 0.646 ± 0.069 |
| ICYGLHVPARRR | 0.63303 ± 0.00013 |
| IDDITMYRKKYR | 0.66 ± 0.047 |
| IDKGENTGKHRL | 0.673 ± 0.027 |
| IDLISENDNAVG | 0.709 ± 0.021 |
| IDMGEQTGKMIN | 0.72 ± 0.012 |
| IDSCFKEVAYGK | 0.625 ± 0.014 |
| IEDEHLEDAPYG | 0.678 ± 0.048 |
| IEETKDYTRKRQ | 0.6484 ± 0.0034 |
| IEGEVRKIGNPT | 0.681 ± 0.086 |
| IEHYPVSSPKMR | 0.623 ± 0.079 |
| IERCGIVKEVKG | 0.74 ± 0.012 |
| IFINAGGYTHTN | 0.726 ± 0.067 |
| IFSPHRPAVALV | 0.626 ± 0.073 |
| IFWGFSFRGWAC | 0.656 ± 0.0067 |
| IFWLFLPSVPFL | 0.702 ± 0.12 |

| Sequence | protein stability index |
| --- | --- |
| IGARLMVGASRK | 0.775 ± 0.16 |
| IGFGPVSCARLF | 0.679 ± 0.11 |
| IGGLSLGESIGG | 0.689 ± 0.02 |
| IGLTVICHFMNV | 0.576 ± 0.05 |
| IGNKLSKMIDTS | 0.665 ± 0.053 |
| IGQCYLRHRGMS | 0.5544 ± 0.0053 |
| IGRRSRALKITE | 0.629 ± 0.03 |
| IGSRRMDADERV | 0.691 ± 0.026 |
| IGVSDSGMWMGN | 0.694 ± 0.026 |
| IICSKLHSPLVV | 0.509 ± 0.031 |
| IIVGFFGLLLGL | 0.5413 ± 0.0048 |
| IIVWVGAGLWGV | 0.594 ± 0.011 |
| IKCCIGCSSICG | 0.692 ± 0.042 |
| IKFVRLEGLCPL | 0.624 ± 0.019 |
| IKGVEKDKKTQK | 0.747 ± 0.045 |
| IKKDSRQRKRDE | 0.648 ± 0.0084 |
| IKKKKKKENKRR | 0.741 ± 0.014 |
| IKLCRSTVVTGV | 0.592 ± 0.013 |
| IKNKDLISVIII | 0.646 ± 0.042 |
| IKRKQRKRKSEK | 0.86 ± 0.14 |
| IKSKKKKKRNKR | 0.638 ± 0.032 |
| IKSQRGIHLELR | 0.634 ± 0.028 |
| ILCQLRKFKFQN | 0.58 ± 0.013 |
| ILEGGGVLAWFG | 0.7253 ± 0.0017 |
| ILFIKQKYLIKK | 0.6878 ± 0.003 |
| ILGGVSPSAFVI | 0.664 ± 0.022 |

| Sequence | protein stability index |
| --- | --- |
| ILGIESLVAGLL | 0.697 ± 0.062 |
| ILGQLHKHFKTS | 0.546 ± 0.046 |
| ILHGRSGLRELL | 0.688 ± 0.023 |
| ILNKYYEQSMRT | 0.68 ± 0.011 |
| ILPPPPPPPPPF | 0.714 ± 0.039 |
| ILRSVIFMDACV | 0.629 ± 0.018 |
| ILSMSQPHPILS | 0.6175 ± 0.0042 |
| ILTDFELLPVYR | 0.731 ± 0.063 |
| ILVGKIEGIVQE | 0.662 ± 0.025 |
| INCDIIHRRKKG | 0.6462 ± 0.0042 |
| INGYRYHTVNIK | 0.688 ± 0.03 |
| INNTKQSENRKS | 0.701 ± 0.054 |
| INRLKPGRGQKT | 0.658 ± 0.03 |
| IPDATGYGWVRH | 0.691 ± 0.018 |
| IPDSSPIVPHPK | 0.6722 ± 0.0065 |
| IPEEHKLTWIIP | 0.74 ± 0.067 |
| IPFFHVVPRPPP | 0.628 ± 0.024 |
| IPIPLLPASSPP | 0.6877 ± 0.0063 |
| IPKDLSRLELYR | 0.62 ± 0.071 |
| IPPFRLLCRLRL | 0.642 ± 0.022 |
| IPPNPPPPNTIA | 0.557 ± 0.0097 |
| IPPPVLPSPPSP | 0.672 ± 0.1 |
| IPRCSPAGVSSY | 0.696 ± 0.064 |
| IPTVSLLHLPPV | 0.699 ± 0.047 |
| IQKNSGHPMKEA | 0.711 ± 0.023 |
